From PMC9964033

Experiments:
Wdr77 = test: interactome comparison (volcano plot); details: CPEB3 and S240-242A expressed in mouse neuroblastoma N2A cells; read off a plot
Gls = test: interactome comparison (volcano plot); details: CPEB3 and S240-242A expressed in mouse neuroblastoma N2A cells; read off a plot

**Q.** For “CPEB3 (full-length), expressed in mouse neuroblastoma N2A cells (from UniProt Q7TN99) S240A; S241A; S242A”, which other: Log2(Fold Change (Mut/FL)) (Wdr77) is on record?
**A.** -4.2

**Q.** And the other: Log2(Fold Change (Mut/FL)) (Gls)?
**A.** 2.8
